From patent US20170247475A1 (Boehringer Ingelheim, published 2017)
Residue numbers refer to the chain shown, from its start. Numbers in names are those of the source.

T1: human VEGF-C (human, UniProt P49767 103-227)
T1 construct: also called hVEGF-C
T1 sequence (looked up): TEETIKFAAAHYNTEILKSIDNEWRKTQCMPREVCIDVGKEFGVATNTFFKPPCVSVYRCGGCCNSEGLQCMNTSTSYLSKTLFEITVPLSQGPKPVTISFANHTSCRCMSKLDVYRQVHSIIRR

B1: VEGFBII08D09 (VHH)
VHH: EVQLVESGGGLVQAGGSLRLSCAASGRSFSDNVMGWFRQAAGKEREFVAHISRGGSRTEYAESVKGRFTISRDNTKKTMYLQMNSLKPEDTAVYYCAASRSVALATARPYDYWGQGTQVTVSS
B2: VEGFBII11D09 (VHH)
VHH: EEQLVESGGGLVQAGGSLMLSCAASGRALSSYAIGWFRQAPGREREFVARISWSGANTYYADSVKGRFTISRGNAKNTVYLQMNSLKPEDTAAYYCAAQTTSKYDNYDARAYGYWGQGTQVTVSS
B3: VEGFBII11E04 (VHH)
VHH: EVQLVESGGGLVQAGGSLRLSCAASGRTFSSYAMGWFRQAPGKEREFVATISQSGYSTYYADSVKGRFTISRDNAKNTVNLQMNSLKPEDTAVYYCAADPFYSYGSPSPYRYWGQGTQVTVSS
B4: VEGFBII10E07 (VHH)
VHH: EVQLVESGGGLVQAGGSLRLSCAASGRTFSNYAMGWFRQAPGKERVLVADISSSGINTYVADAVKGRFTISRDNAKNTVYLQMNSLKPEDTAVYYCAASAWWYSQMARDNYRYWGQGTQVTVSS
B5: VEGFBII10G05 (VHH)
VHH: EVQLVESGGGLVQAGESLRLSCVASGITFSNYNMGWFRQAPGKEREFVATIRHHGYDTYYAESVKGRFTISRDNAKNTVYLQMNSLKPEDTALYSCAKKLFWDMDPKTGFSSWGQGTQVTVSS
B6: human VEGFR2-Fc chimera (Fc fusion, UniProt P35968 20-764, looked up, not shown: a dimerising Fc or GST)
chain: ASVGLPSVSLDLPRLSIQKDILTIKANTTLQITCRGQRDLDWLWPNNQSGSEQRVEVTECSDGLFCKTLTIPKVIGNDTGAYKCFYRETDLASVIYVYVQDYRSPFIASVSDQHGVVYITENKNKTVVIPCLGSISNLNVSLCARYPEKRFVPDGNRISWDSKKGFTIPSYMISYAGMVFCEAKINDESYQSIMYIVVVVGYRIYDVVLSPSHGIELSVGEKLVLNCTARTELNVGIDFNWEYPSSKHQHKKLVNRDLKTQSGSEMKKFLSTLTIDGVTRSDQGLYTCAASSGLMTKKNSTFVRVHEKPFVAFGSGMESLVEATVGERVRIPAKYLGYPPPEIKWYKNGIPLESNHTIKAGHVLTIMEVSERDTGNYTVILTNPISKEKQSHVVSLVVYVPPQIGEKSLISPVDSYQYGTTQTLTCTVYAIPPPHHIHWYWQLEEECANEPSQAVSVTNPYPCEEWRSVEDFQGGNKIEVNKNQFALIEGKNKTVSTLVIQAANVSALYKCEAVNKVGRGERVISFHVTRGPEITLQPDMQPTEQESVSLWCTADRSTFENLTWYKLGPQPLPIHVGELPTPVCKNLDTLWKLNATMFSNSTNDILIMELKNASLQDQGDYVCLAQDRKTKKRHCVVRQLTVLERVAPTITGNLENQTTSIGESIEVSCTASGNPPPQIMWFKDNETLVEDSGIVLKDGNRNLTIRRVRKEDEGLYTCQACSVLGCAKVEAFFIIEGAQEKTNLE
notes: bought (R&D Systems); also called hVEGFR2-Fc; VEGFR2-huFc
B7: VEGFBII41C05 (VHH)
VHH: EVQLVESGGGLVQAGGSLRLSCAASGRTFSVYTMGWFRQAPGKEREFVATISRTGDRTSYANSVKGRFTISRENAKNTVYLQMNSLKPEDTAVYSCAAGPIAPSPRPREYYYWGQGTQVTVSS
B8: VEGFBII11E05 (VHH)
VHH: EVQLVESGGGLVQPGGSLRLSCASSGRLFSFSAMGWFRQAPGKEREFVAAFKWSGSTTYYADYVKGRFTISTDNAKNILFLQMNSLKPEDTAIYYCAVDRFYTGRYYSSDEYDYWGQGTQVTVSS
B9: VEGFBII10G04 (VHH)
VHH: EVQLVESGGGLVQAGGSLRLSCAASGDTLSRYAMGWFRQAPGKEREFVASINTSGKRTSYADSMKGRFAVSRDNAKNTGYLQMNSLKLEDTATYYCAADRFFGSDSNEPRAYRYWGQGTQVTVSS
B10: VEGFBII11C08 (VHH)
VHH: EVQLVESGGGLVQAGGSLRLSCAASGRTLSSYGLGWFRQAPGKEREFVAAIGWSGSSTYYADSVKGRFTVSVDNAKNTVYLKMNSLEPEDTAVYYCAAKVRNFNSDWDLLTSYNYWGQGTQVTVSS
B11: VEGFBII119G11 (VHH)
VHH: EVQLVESGGGLVQPGGSLRLSCAASGIRFMSMAWYRQAPGKQRELVARISSGGTTAYADSVKGRFTISRDNSKNTVYLQMNSLRAEDTAVYYCNTFSSRPNPWGQGTLVTVSS
notes: humanization variant of VEGFBII5B05; tested as periplasmic extract
B12: VEGFBII120E10 (VHH)
VHH: B11 VHH with A23V, M30I, Q42H, A58V, R84K, Q105A, L108Q
notes: VEGFBII5B05 with the M30I mutation; tested as periplasmic extract
B13: VEGFBII86H09 (VHH)
VHH: EVQLVESGGGLVQAGGSLRLSCTASGSAFKSYRMGWFRRTPGKEDEFVASISWTYGSTFYADSVKGRFTMSRDKAKNAGYLQMNSLKPEDTALYYCAAGAQSDRYNIRSYDYWGQGTQVTVSS
B14: VEGFBII11F12 (VHH)
VHH: EVQLVESGGGLVQSGGSLRLSCAASGRSFSSLAMGWFRQVPGKDREFVASISQSGITTSYADSVKSRFTISRDSAKNTVYLQMNLLKPEDTAVYYCATSVFYSTALTRPVDYRYWGQGTQVTVSS
B15: VEGFBII10C07 (VHH)
VHH: EVQLVESGGGLVQAGGSLSLSCAASARAFSNYAMGWFRQVPGREREFVAVITRSPSNTYYTDSVKGRFTISRDNAKNIVYLQMNSLKPEDTAVYYCAAHYWNSDSYTYTDSRWYNYWGQGTQVTVSS

Legend:
[1] = molecular target: T2, recombinant human VEGF165 (human, UniProt P15692-4 27-191); experiment: Biacore epitope binning, VEGF165 captured on immobilised VEGFBII23B04
T2 construct: also called hVEGF165; rhVEGF165
T2 sequence (P15692 other isoform, or with tags, fused parts or gaps limits assumed): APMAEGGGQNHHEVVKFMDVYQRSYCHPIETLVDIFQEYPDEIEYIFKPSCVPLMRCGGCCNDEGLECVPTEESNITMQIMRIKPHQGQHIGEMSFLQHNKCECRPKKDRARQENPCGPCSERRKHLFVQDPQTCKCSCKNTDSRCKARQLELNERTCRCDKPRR
Procedure: Biacore-based epitope binning experiments are performed to investigate which VEGF binders bind to a similar or overlapping epitope as VEGFBII23B04. To this end, VEGFBII23B04 is immobilized on a CM5 sensor chip. […] Purified VHHs (100 nM) or periplasmic extracts (1/10 diluted) are then injected with a surface contact time of 240 seconds and a flow rate of 10 uL/minute. Between different samples, the surface is regenerated with regeneration buffer (100 mM HCl). Processed curves are evaluated with Biacore T100 Evaluation software.

[2] = molecular target: T1, human VEGF-C; experiment: binding ELISA on coated VEGFC
Procedure: Binding to VEGFB, VEGFC, VEGFD and PIGF is assessed via a solid phase binding ELISA. In brief, VEGFB, VEGFC, VEGFD and PIGF (R&D Systems, Minneapolis, Minn., USA) are coated overnight at 4° C. at 1 μg/mL in a 96-well MaxiSorp plate (Nunc, Wiesbaden, Germany). Wells are blocked with a casein solution (1% in PBS). […] As positive controls serial dilutions of the appropriate receptors are taken along and detected with horseradish peroxidase (HRP)-conjugated goat anti-human IgG, Fc specific antibody (Jackson Immuno Research Laboratories Inc., West Grove, Pa., USA) and a subsequent enzymatic reaction in the presence of the substrate TMB (3,3′,5,5′-tetramentylbenzidine) (Pierce, Rockford, Ill., USA).

[3] = molecular target: T2, recombinant human VEGF165; experiment: ProteOn, periplasmic extract 1/10 on hVEGF165 chip
Source text: One additional variant is constructed in which the potential oxidation site at position M30 (CDR1 region, see FIG. 19 indicated as bold italic residue) is removed by introduction of a M30I mutation.

Binder | binding result [1] | other results
B1 | binds | –
B2 | binds | –
B3 | binds | –
B4 | binds | –
B5 | binds | –
B6 | – | EC50 (read off the curve) [2]: ~4 nM
B7 | binds | –
B8 | binds | –
B9 | binds | –
B10 | binds | –
B11 | – | Binding level (RU) [3]: 234 RU; koff [3]: 0.0775 s⁻¹
B12 | – | Binding level (RU) [3]: 257 RU; koff [3]: 0.0468 s⁻¹
B13 | binds | –
B14 | binds | –
B15 | binds | –
